What is called Kd is the free concentration of one partner at which half of the binding sites on the other are occupied at equilibrium, for simple one-to-one binding. High values mean weaker binding, low ones tighter binding.

The target of experiment [1] is T1, PDZ domain of the human MAST2 protein (human), Q6P0Q8.
T1 chain: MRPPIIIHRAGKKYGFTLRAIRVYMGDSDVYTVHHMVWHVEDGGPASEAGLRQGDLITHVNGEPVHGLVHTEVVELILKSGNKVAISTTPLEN

In experiment [2] the target is T2, PDZ domain of the human PTPN4 protein (human), P29074.
T2 chain: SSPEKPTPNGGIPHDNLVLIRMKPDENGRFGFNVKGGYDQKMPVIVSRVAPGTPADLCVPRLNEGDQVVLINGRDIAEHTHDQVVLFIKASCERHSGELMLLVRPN
Briefly: method not restated in the table; ITC per paragraph 50.

Take SWESHKSGGETRL (modifications not checked) [ATT13]: the Kd in experiment [1] amounted to 0.57 µM; in experiment [2], 160 µM.

(Values after patent publication US20140315822A1.)
